Results from patent publication US20220356229A1 (published 2022).

T1: HKU1 full length Spike (human coronavirus HKU1, UniProt Q5MQD0 13-1276)
T1 sequence: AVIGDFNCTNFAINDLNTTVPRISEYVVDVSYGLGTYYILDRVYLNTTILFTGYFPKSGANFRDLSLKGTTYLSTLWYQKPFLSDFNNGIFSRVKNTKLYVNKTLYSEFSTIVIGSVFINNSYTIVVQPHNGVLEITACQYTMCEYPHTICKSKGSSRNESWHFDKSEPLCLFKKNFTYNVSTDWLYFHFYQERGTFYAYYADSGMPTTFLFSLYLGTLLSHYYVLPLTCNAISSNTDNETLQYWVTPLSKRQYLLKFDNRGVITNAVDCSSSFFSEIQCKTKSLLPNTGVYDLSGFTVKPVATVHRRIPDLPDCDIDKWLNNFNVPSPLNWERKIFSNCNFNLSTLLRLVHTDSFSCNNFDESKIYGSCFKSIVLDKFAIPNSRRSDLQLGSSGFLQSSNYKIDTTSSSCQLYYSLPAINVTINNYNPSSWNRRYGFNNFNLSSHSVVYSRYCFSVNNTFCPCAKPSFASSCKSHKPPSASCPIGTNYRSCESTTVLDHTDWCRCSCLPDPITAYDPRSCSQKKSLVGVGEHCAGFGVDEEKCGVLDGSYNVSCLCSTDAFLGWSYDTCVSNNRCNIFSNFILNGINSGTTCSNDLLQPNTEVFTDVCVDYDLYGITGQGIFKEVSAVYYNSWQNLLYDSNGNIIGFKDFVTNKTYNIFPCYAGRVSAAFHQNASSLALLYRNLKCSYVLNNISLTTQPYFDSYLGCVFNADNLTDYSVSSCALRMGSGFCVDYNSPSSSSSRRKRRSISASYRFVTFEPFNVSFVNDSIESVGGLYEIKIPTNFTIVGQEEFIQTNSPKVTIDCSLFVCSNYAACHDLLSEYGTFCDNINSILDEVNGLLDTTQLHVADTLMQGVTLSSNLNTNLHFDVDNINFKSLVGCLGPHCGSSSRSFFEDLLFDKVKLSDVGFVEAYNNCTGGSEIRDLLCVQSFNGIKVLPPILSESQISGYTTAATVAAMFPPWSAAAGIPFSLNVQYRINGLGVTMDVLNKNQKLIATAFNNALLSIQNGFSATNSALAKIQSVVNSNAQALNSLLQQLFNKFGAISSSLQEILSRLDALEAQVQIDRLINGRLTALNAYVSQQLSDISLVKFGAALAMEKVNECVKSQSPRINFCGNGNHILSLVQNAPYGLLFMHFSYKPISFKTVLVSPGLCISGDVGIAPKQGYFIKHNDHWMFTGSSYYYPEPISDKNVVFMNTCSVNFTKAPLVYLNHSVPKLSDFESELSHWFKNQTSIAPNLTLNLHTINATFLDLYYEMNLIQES

T2: MERS full length Spike (MERS-CoV, UniProt K9N5Q8 18-1291)
T2 sequence: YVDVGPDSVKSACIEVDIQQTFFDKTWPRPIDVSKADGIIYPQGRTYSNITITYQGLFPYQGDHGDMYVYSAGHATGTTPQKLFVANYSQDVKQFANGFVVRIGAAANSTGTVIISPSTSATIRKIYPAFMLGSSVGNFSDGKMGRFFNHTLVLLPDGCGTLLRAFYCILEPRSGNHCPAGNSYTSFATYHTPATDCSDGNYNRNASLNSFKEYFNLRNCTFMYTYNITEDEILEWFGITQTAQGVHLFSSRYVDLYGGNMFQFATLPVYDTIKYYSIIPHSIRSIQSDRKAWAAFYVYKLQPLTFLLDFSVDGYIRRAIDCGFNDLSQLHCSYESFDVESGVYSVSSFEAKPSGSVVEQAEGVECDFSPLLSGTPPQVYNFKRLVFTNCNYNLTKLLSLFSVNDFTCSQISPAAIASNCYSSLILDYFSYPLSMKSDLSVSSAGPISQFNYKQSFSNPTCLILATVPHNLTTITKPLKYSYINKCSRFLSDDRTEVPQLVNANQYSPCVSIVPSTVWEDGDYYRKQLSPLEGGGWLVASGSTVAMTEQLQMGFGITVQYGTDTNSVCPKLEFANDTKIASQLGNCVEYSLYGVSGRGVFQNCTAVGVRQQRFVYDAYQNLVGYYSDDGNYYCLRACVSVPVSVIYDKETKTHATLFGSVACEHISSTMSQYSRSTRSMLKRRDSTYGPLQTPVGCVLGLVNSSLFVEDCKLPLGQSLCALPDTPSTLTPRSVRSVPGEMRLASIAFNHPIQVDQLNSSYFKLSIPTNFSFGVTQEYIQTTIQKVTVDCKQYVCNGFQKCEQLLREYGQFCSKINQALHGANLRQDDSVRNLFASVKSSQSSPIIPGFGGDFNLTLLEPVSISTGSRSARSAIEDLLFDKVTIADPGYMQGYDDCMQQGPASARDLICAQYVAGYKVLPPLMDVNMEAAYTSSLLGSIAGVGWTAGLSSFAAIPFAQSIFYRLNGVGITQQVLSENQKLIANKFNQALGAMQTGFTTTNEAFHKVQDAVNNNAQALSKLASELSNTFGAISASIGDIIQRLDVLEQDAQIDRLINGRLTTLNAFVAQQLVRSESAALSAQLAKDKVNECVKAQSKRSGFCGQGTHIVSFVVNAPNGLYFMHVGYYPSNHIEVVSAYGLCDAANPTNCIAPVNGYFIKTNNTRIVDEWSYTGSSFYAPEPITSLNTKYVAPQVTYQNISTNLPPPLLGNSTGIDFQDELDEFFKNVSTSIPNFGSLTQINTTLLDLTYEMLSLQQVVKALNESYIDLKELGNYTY


Legend:
[1] = target: T1, HKU1 full length Spike
[2] = target: T2, MERS full length Spike
[3] = target: SARS-CoV full length Spike (SARS-CoV, UniProt P59594 14-1190)

Row | Binder | median fluorescence intensity, fold over isotype control [1] [fold over isotype] | median fluorescence intensity, fold over isotype control [2] [fold over isotype] | median fluorescence intensity, fold over isotype control [3] [fold over isotype]
1 | mAb 896 (antibody, V domains shown) VH: EVQLVESGGGVVQPGGSLRLSCAASGFTFDDYAMHWVRQVPGKGLEWVSLISGDGGSTYYADSVKGRFTISRDNSKNSLYVQMNSLRTEDTALYYCVKDRGGSGWDLNHYYYGMDVWGQGTTVTVSS VL: DIQLTQSPSFLSASVGDRVTVTCRASQGISSYLAWYQQKPGKAPKLLIYAAYTLQSGVPSRFSGSGSETEFTLTISSLQPEDFATYYCQQVKSYPLTFGGGTKVEIKR | 1.07 | 1.02 | 0.97
2 | mAb 923 (antibody, V domains shown) VH: EVQLVESGGGVVRPGGSLRLSCAASGFIFDDYDMTWVRQAPGKGLEWVSGISWNGGNTGYADSVKGRFTISRDNAKNSLYLQMNSLRAEDTALYHCAVIMSPIPRYSGYDWAGGAFDIWGQGTMVTVSS VL: SSELTQDPAVSVALGQTVRITCQGDSLRSYYASWYQQKPGQVPILVIYDKNNRPSGIPDRFSGSSSGNTASLTITGAQAEDEADYYCNSRDSSGNAVVFGGGTKLTVLG | 1.42 | 1.08 | 773
3 | mAb 936 (antibody, V domains shown) VH: EVQLVESGGGLVQPGRSLTLSCAGSGFTFDDYAMHWVRQAPGKGLEWVSGISWNSGSIGYADSVKGRFTISRDNAKNSLYLQMNSLRAEDTALYYCAKDVSYDSSGYYNNAFDIWGQGTMVTVSS VL: DIQLTQSPSFLSASVGDRVTITCRASQGISSYLAWYQQKPGKAPKLLIYAASTLQSGVPSRFSGSGSGTEFTLTISSLQPEDFATYYCQQLYSYPVTFGQGTRLEIKR | 1.02 | 0.92 | 0.95
4 | mAb 970 (antibody, V domains shown) VH: EVQLVESGGGLVQPGGSLRLSCAASGFTFSSYWMSWVRQAPGKGLEWVANINKDGSEKYYVDSVKGRFTISRDNAKNSLYLQMNSLRAEDTAVYFCARDYRYFDWLLSQIDLEIDYFDYWGQGTLVTVSS VL: not shown | 0.88 | 0.87 | 547
5 | mAb 1015 (antibody, V domains shown) VH: EVQLVESGGGLVQPGGSLRLSCAASGFTFSSYWMHWVRQAPGKGLVWVSHINSDGSSTSYADSVKGRFTISRDNAKNTLYLQMNSLRAEDTAVYYCARGLRYFDLDVWGQGTTVTVSS VL: QSVLTQPPSVSEAPRQRVTISCSGSSSNIGNNAVNWYQQLPGKAPKLLIFYDDLLPSGVSDRFSGSKSGTSASLAISGLQSEDEADYYCAAWDDSLNGGVFGGGTKLTVLG | 1.04 | 0.85 | 0.91
6 | mAb 1036 (antibody, V domains shown) VH: QVQLVQSGAEVKKPGSSVKVSCKASGGTLSSYTISWVRQAPGQGLEWMGRIIPILGIADYAQKFQGRVTITADKSTTTAYMDLSSLGSEDTALYYCASAPKDWSSGFDYYYGMDVWGQGTMVTVSS VL: DIVMTQTPLSLSVTPGQPASISCKSSQSLLNSDGKTYLYWYLQKAGQPPQLLIYEVSNRFSGVPERFSGSGSGTDFTLKISRVEAEDVGVYYCMQSVQLPPYTFGQGTKLEITR | 0.94 | 1.07 | 1.05
7 | mAb 1037 (antibody, V domains shown) VH: QITLKESGPTLVKPTQTLTLTCTFSGFSLSTSGVGVGWIRQPPGKALEWLALIYWDDDKRYSPSLKSRLTITKDTSKNQVVLTMTNMDPVDTATYYCAHHTITRINDYWGQGTLVTVSS VL: QSALTQPASVSGSPGQSITISCTATSSDVGAYNYVSWYQQHPGKAPKLMIYDVSKRPSGVSNRFSGSKSGNTASLTISGLQAEDEADYYCSSYTSSSTVFGGGTKLTVLG | 1.43 | 1.06 | 4.36
8 | mAb 1075 (antibody, V domains shown) VH: QVQLVQSGAEVKKPGASVKVSCKVSGYTLIELSMHWVRQAPGKGLEWMGGFDPEDGETIYAQKFQGRVTMTEDTSTDTAYMELSSLRSEDTAVYYCATEWAYYGSGSYLGYWGQGTLVTVSS VL: EIVMTQSPATLSVSPGERATLSCRASQSVSSNLAWFQQKPGQAPRLLIYGASTRVTVIPARFSGSGSGTEFTLTISSLQSEDFAVYYCQQYNNWPRTFGQGTKVEIKR | 0.93 | 0.89 | 0.91
9 | mAb 1135 (antibody, V domains shown) VH: EVQLVESGGGLVQPGRSLRLSCAASGLTFEDYAMHWVRQVPGKGLEWVSGISWNSGTIGYADSVKGRFIISRDNAKNSLYLQMRSLRAEDTALYYCAKDVGFGELLYYAFDIWGQGTMVTVSS VL: QSALTQPASVSGSPGQSITISCTGTSSDVGGYNYVSWYQQHPGKAPKLMIYDVSNRPSGVSNRFSGSKSGNTASLTISGLQAEDEADYYCSSYTSSSTVVFGGGTKLTVLG | 0.83 | 0.93 | 0.92
10 | mAb 1149 (antibody, V domains shown) VH: QVQLVQSGAEVKKPGASVKVSCKASGYTFASYDINWVRQATGQGPEWMGWMIPNIGNTGYAQKFQGRVTMTRNTSISTAYMELSSLTSEDTAVYYCARVSRLFNDFGLRHEAPVDFWGQGTRVTVSS VL: QSVLTQPPSVSGAPGQRVTISCTGSSSNIGAGYDVHWYQQLPGTAPKLLIYGYSSRPSGVPDRFSGSKSGTSASLAITGLQAEDEADYYCQSYDSSLSVLFGGGTKLTVLG | 0.83 | 1.04 | 1.05
11 | mAb 1404 (antibody, V domains shown) VH: QITLKESGPTLVKPTQTLTLTCTFSGFSLSISGVGVGWLRQPPGKALEWLALIYWDDDKRYSPSLKSRLTISKDTSKNQVVLKMTNIDPVDTATYYCAHHSISTIFDHWGQGTLVTVSS VL: QSALTQPASVSGSPGQSITISCTATSSDVGDYNYVSWYQQHPGKAPKLMIFEVSDRPSGISNRFSGSKSGNTASLTISGLQAEDEADYYCSSYTTSSAVFGGGTKLTVLG | 0.94 | 0.91 | 0.97
